Test results taken from publication PMC9227038, “Characterization of Four Medically Important Toxins from Centruroides huichol Scorpion Venom and Its Neutralization by a Single Recombinant Antibody Fragment” (Toxins, 2022).

Key:
Assay in all cases: SPR
Conditions in all cases: both partners purified
Chui3 toxin [1] = target: T1, Chui3 toxin (Centruroides huichol, UniProt C0HM16)
T1 construct: also called Chui3/Cn3; FII.9-3

Chui5 toxin [2] = target: T2, Chui5 toxin (Centruroides huichol, UniProt C0HM18)
T2 construct: also called FII.12-1
T2 sequence (C0HM18 whole entry): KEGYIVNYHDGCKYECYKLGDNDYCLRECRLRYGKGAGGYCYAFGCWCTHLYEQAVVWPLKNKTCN

Chui4 toxin [3] = target: T3, Chui4 toxin (Centruroides huichol, UniProt C0HM17)
T3 construct: also called FII.10-1
T3 sequence (C0HM17 whole entry): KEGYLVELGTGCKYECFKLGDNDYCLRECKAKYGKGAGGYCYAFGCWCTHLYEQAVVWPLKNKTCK

Chui2 toxin [4] = target: T4, Chui2 toxin (Centruroides huichol, UniProt C0HM15)
T4 construct: also called FII.9-2
T4 sequence (C0HM15 whole entry): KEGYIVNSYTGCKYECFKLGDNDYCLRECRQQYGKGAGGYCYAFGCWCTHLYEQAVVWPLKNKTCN

Chui3 toxin [5] = target: T1, Chui3 toxin; remark: listed apart in the source
Chui4 toxin [6] = target: T3, Chui4 toxin; remark: listed apart in the source
Chui2 toxin [7] = target: T4, Chui2 toxin; remark: listed apart in the source
Chui5 toxin [8] = target: T2, Chui5 toxin; remark: listed apart in the source
Chui5 toxin [9] = target: T2, Chui5 toxin; remark: listed apart in the source
Chui5 toxin [10] = target: T2, Chui5 toxin; remark: listed apart in the source

T1 sequence (C0HM16 whole entry): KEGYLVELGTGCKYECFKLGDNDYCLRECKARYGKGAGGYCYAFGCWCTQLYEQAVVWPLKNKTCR

| Binder | Kd (Chui3 toxin [5]) [nM] | TR (residence time) (Chui3 toxin [5]) [min] | koff (Chui3 toxin [5]) [s⁻¹] | kon (Chui3 toxin [5]) [M⁻¹ s⁻¹] | Kd (Chui4 toxin [6]) [nM] | TR (residence time) (Chui4 toxin [6]) [min] | koff (Chui4 toxin [6]) [s⁻¹] | kon (Chui4 toxin [6]) [M⁻¹ s⁻¹] | Kd (Chui2 toxin [7]) [nM] | TR (residence time) (Chui2 toxin [7]) [min] | koff (Chui2 toxin [7]) [s⁻¹] | kon (Chui2 toxin [7]) [M⁻¹ s⁻¹] | Kd (Chui5 toxin [8]) [nM] | koff (Chui5 toxin [8]) [s⁻¹] | kon (Chui5 toxin [8]) [M⁻¹ s⁻¹] | dH (Chui5 toxin [9]) [kcal/mol] | other results |
| --- | --- | --- | --- | --- | --- | --- | --- | --- | --- | --- | --- | --- | --- | --- | --- | --- | --- |
| scFv LR (scFv, V domains shown) VH: EVQLVESGGGLVQPGGSLRLSCTGSGFTFDNYAMHWLRQVPGEGLEWVSGISRSSGDIDYADSVKGRFTISRDDAKKTLSLQMNSLRAEDTAVYYCARGGFGSFDTWGQGTMVTVSS VL: EIVLTQSPATLSVSPGERATLSCRASQSVRSYLAWYQQKPGQAPRLLFSDASNRATGIPARFTGSGSGTDFTLTISSLEPEDFAIYYCQQYRYSPRTFGQGTKVEIK | – | – | – | – | – | – | – | – | – | – | – | – | – | – | – | – | binding result (Chui3 toxin [1]): binds; binding result (Chui5 toxin [2]): no binding (tested: 25 nM); binding result (Chui4 toxin [3]): binds; binding result (Chui2 toxin [4]): binds |
| scFv 10FG2 (scFv, V domains shown, source: E. coli TG1 (pSyn1), purified (Ni2+-NTA, Superdex 75 SEC)) VH: QVNLRESGGGLVQPGGSLRLSCAASGFSFGSYGMHWVRQAPGKGLEWVAVISYGGGSKYYADSVKGRFTISRDNSKNTLYLQMNSLRAEDTAVYYCAKDARDCLLCSDWTFDLWGRGTLVTVSS VL: NFMLTQPHSASGTPGQRVTISCSGSSSNIGSNTVNWYRHLPGSAPELLIGSHNQRPSGVPDRFSGSKSGTSASLAISGLQSEDEADYYCAAWDDSTLGYVFGTGTKLTVL | 1.8 | 53.1 | 0.00031 | 180000 | 0.3 | 242 | 7e-05 | 210000 | 1.1 | 60.4 | 0.00028 | 280000 | – | – | – | – | – |
| scFv 9a (scFv, V domains shown, also called variant 9a; clone 9a) VH: QVNLRESGGGLVQPGGSLRLSCAASGFSFGSYGMHWVRQAPGKGLEWVAVISYGGGSKYYADSVKGRFTISRDNSKNTLYLQMNSLRAEDTAVYYCAKDARDCLQCSDWTFDLWGRGTLVTVSS VL: NFMLTQPHSASGTPGQRVTISCSGSSSNIGSNTVNWYRHLPGSAPELLIGSHNQRPSGVPDRFSGSKSGTSASLAISGLQSEDEADYYCAAWDDSTLGYVFGTGTKLTVL | – | – | – | – | – | – | – | – | – | – | – | – | 8.2 | 0.00119 | 150000 | – | – |
| scFv HV (scFv, V domains shown, also called HV variant) VH: QVNLRESGGGLVQPGGSLRLSCAASGFSYGSYGMHWVRQAPGKGLEWVAVISYGGGSKYYADSVQGRFTISRDNSKNTLYLQMNSLRAEDTAVYYCAKDARDCLGCSDWTFDLWGRGTLVTVSS VL: NFMLTQPHSASGTPEQRVTISCSGSSSNIGSNTVNWYRHLPGSAPELLIGSHNQRPSGVPDRFSGSKSGTSASLAISGLQSEDEADYYCAAWDDSTLGYVFGTGTKLTVL | 3.8 | 48.8 | 0.00034 | 90000 | 0.9 | 105 | 0.00016 | 180000 | 3.1 | 34.2 | 0.00049 | 160000 | – | – | – | -1.6 | Kd (Chui5 toxin [10]): 6.9 nM; TR (residence time) (Chui5 toxin [10]): 15.5 min; koff (Chui5 toxin [10]): 0.00108 s⁻¹; kon (Chui5 toxin [10]): 160000 M⁻¹ s⁻¹ |
| scFv B15a (scFv, V domains shown, also called B15a variant; source: E. coli TG1 (pSyn1), purified (Ni2+-NTA, Superdex 75 SEC)) VH: QVNLRESGGGLVQPGGSLRLSCAASGFSFGSYGMHWVRQAPGKGLEWVAVISYGGGSKYYADSVQGRFTISRDNSKNTLYLQMNSLRAEDTAVYYCAKDARDCLQCSDWTFDLWGRGTLVTVSS VL: NFMLTQPHSASGTPGQRVTISCSGSSSNIGSNTVNWYRHLPGSAPELLIGSHNQRPSGVPDRFSGSKSGTSASLAISGLQSEDEADYYCAAWDDSTLGYVFGTGTKLTVL | – | – | – | – | – | – | – | – | – | – | – | – | 7.3 | 0.00097 | 130000 | -2.6 | – |
